Data set [1] has as its system HDAC4 expressed in Saccharomyces cerevisiae from a constitutively active promoter (pNOP).
Data set [2] has as its system flag tagged HDAC4 (overexpressed in neonatal rat cardiomyocytes).

“ABHD5 expressed in Saccharomyces cerevisiae from a Galactose inducible promoter (pGAL)”: in data set [1], the “cleavage of HDAC4 in Saccharomyces cerevisiae, westernblot analysis” value is given as “By overexpression either together or with backbone vector in Saccharomyces cerevisiae we found cleavage of HDAC4, confirmed by westernblot analysis”.
As for “gfp tagged abhd5 (adenoviral overexpression in neonatal rat ventricular myocytes)”, the “HDAC4 cleavage, immunoblot” value in data set [2] is “Overexpressed flag tagged HDAC4 was cleaved whenever gfp tagged abhd5 was coexpressed”.

(Values after patent US20180258407.)
